Results taken from patent US20260242735A1.

What was measured:
[1] = biological target: human wild-type CD33 (human) (UniProt P20138); experiment: flow cytometry, IgG at 0.25 ug/ml on HEK293-T cells expressing CD33 against vector alone
[2] = biological target: human CD33 F44T (human) (UniProt P20138); experiment: flow cytometry on transfected cells, IgG
[3] = biological target: human CD33 Y49H (human) (UniProt P20138); experiment: flow cytometry on transfected cells, IgG
[4] = biological target: human CD33 P48K (human) (UniProt P20138); experiment: flow cytometry on transfected cells, IgG
[5] = biological target: human CD33 P48L (human) (UniProt P20138); experiment: flow cytometry on transfected cells, IgG
[6] = biological target: human CD33 Y49R (human) (UniProt P20138); experiment: flow cytometry on transfected cells, IgG
[7] = biological target: human CD33 P46S (human) (UniProt P20138); experiment: flow cytometry on transfected cells, IgG
[8] = biological target: human CD33 I47Y (human) (UniProt P20138); experiment: flow cytometry on transfected cells, IgG
Chain of human CD33 I47Y (human) (P20138 18-364 I47Y limits assumed): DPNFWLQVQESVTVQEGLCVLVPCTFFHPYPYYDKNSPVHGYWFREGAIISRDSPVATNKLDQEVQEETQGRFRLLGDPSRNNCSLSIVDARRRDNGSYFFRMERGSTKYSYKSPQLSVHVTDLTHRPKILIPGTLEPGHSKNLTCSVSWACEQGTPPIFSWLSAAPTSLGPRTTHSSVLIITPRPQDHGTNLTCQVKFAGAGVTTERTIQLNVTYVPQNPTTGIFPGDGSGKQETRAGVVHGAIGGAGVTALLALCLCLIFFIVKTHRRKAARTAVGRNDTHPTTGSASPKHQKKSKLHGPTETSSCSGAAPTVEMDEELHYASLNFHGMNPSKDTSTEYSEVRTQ

[9] = biological target: human CD33 I47Q (human) (UniProt P20138); experiment: flow cytometry on transfected cells, IgG
[10] = biological target: human CD33 P48I (human) (UniProt P20138); experiment: flow cytometry on transfected cells, IgG
[11] = biological target: human CD33 P48W (human) (UniProt P20138); experiment: flow cytometry on transfected cells, IgG
Chain of human CD33 P48W (human) (P20138 18-364 P48W limits assumed): as the sequence (P20138 18-364 I47Y limits assumed) above, with Y30I, P31W counted along it

[12] = biological target: human CD33 I47G (human) (UniProt P20138); experiment: flow cytometry on transfected cells, IgG
Chain of human CD33 I47G (human) (P20138 18-364 I47G limits assumed): as the sequence (P20138 18-364 I47Y limits assumed) above, with Y30G counted along it

[13] = biological target: human CD33 P48M (human) (UniProt P20138); experiment: flow cytometry on transfected cells, IgG
[14] = biological target: human CD33 P46D (human) (UniProt P20138); experiment: flow cytometry on transfected cells, IgG
[15] = biological target: human CD33 Y50D (human) (UniProt P20138); experiment: flow cytometry on transfected cells, IgG
[16] = biological target: human CD33 P48G (human) (UniProt P20138); experiment: flow cytometry on transfected cells, IgG
Chain of human CD33 P48G (human) (P20138 18-364 P48G limits assumed): as the sequence (P20138 18-364 I47Y limits assumed) above, with Y30I, P31G counted along it

[17] = biological target: human CD33 T42K (human) (UniProt P20138); experiment: flow cytometry on transfected cells, IgG
Chain of human CD33 T42K (human) (P20138 18-364 T42K limits assumed): as the sequence (P20138 18-364 I47Y limits assumed) above, with T25K, Y30I counted along it

[18] = biological target: human CD33 I47E (human) (UniProt P20138); experiment: flow cytometry on transfected cells, IgG
[19] = biological target: human CD33 Y50R (human) (UniProt P20138); experiment: flow cytometry on transfected cells, IgG
[20] = biological target: human CD33 F44D (human) (UniProt P20138); experiment: flow cytometry on transfected cells, IgG
[21] = biological target: human CD33 P48N (human) (UniProt P20138); experiment: flow cytometry on transfected cells, IgG
[22] = biological target: human CD33 P48Q (human) (UniProt P20138); experiment: flow cytometry on transfected cells, IgG
[23] = biological target: human CD33 P48D (human) (UniProt P20138); experiment: flow cytometry on transfected cells, IgG
Chain of human CD33 P48D (human) (P20138 18-364 P48D limits assumed): as the sequence (P20138 18-364 I47Y limits assumed) above, with Y30I, P31D counted along it

[24] = biological target: human CD33 Y49V (human) (UniProt P20138); experiment: flow cytometry on transfected cells, IgG
[25] = biological target: human CD33 Y49G (human) (UniProt P20138); experiment: flow cytometry on transfected cells, IgG
[26] = biological target: human CD33 F44E (human) (UniProt P20138); experiment: flow cytometry on transfected cells, IgG
[27] = biological target: human CD33 I47F (human) (UniProt P20138); experiment: flow cytometry on transfected cells, IgG
[28] = biological target: human CD33 G220A (human) (UniProt P20138); experiment: alanine scan, flow cytometry
[29] = biological target: human CD33 H206A (human) (UniProt P20138); experiment: alanine scan, flow cytometry
Chain of human CD33 H206A (human) (P20138 18-364 H206A limits assumed): as the sequence (P20138 18-364 I47Y limits assumed) above, with Y30I, H189A counted along it

[30] = biological target: human CD33 P244A (human) (UniProt P20138); experiment: alanine scan, flow cytometry
[31] = biological target: human CD33 Q228A (human) (UniProt P20138); experiment: alanine scan, flow cytometry
Chain of human CD33 Q228A (human) (P20138 18-364 Q228A limits assumed): as the sequence (P20138 18-364 I47Y limits assumed) above, with Y30I, Q211A counted along it

[32] = biological target: human CD33 G264A (human) (UniProt P20138); experiment: alanine scan, flow cytometry
[33] = biological target: human CD33 A265S (human) (UniProt P20138); experiment: alanine scan, flow cytometry
[34] = biological target: human CD33 T223A (human) (UniProt P20138); experiment: alanine scan, flow cytometry
[35] = biological target: human CD33 I242A (human) (UniProt P20138); experiment: alanine scan, flow cytometry
[36] = biological target: human CD33 A219S (human) (UniProt P20138); experiment: alanine scan, flow cytometry
[37] = biological target: human CD33 V231A (human) (UniProt P20138); experiment: alanine scan, flow cytometry
Chain of human CD33 V231A (human) (P20138 18-364 V231A limits assumed): as the sequence (P20138 18-364 I47Y limits assumed) above, with Y30I, V214A counted along it

[38] = biological target: human CD33 P201A (human) (UniProt P20138); experiment: alanine scan, flow cytometry
[39] = biological target: human CD33 T222A (human) (UniProt P20138); experiment: alanine scan, flow cytometry
[40] = biological target: human CD33 L197A (human) (UniProt P20138); experiment: alanine scan, flow cytometry
Chain of human CD33 L197A (human) (P20138 18-364 L197A limits assumed): as the sequence (P20138 18-364 I47Y limits assumed) above, with Y30I, L180A counted along it

[41] = biological target: human CD33 A217S (human) (UniProt P20138); experiment: alanine scan, flow cytometry
Chain of human CD33 A217S (human) (P20138 18-364 A217S limits assumed): as the sequence (P20138 18-364 I47Y limits assumed) above, with Y30I, A200S counted along it

[42] = biological target: human CD33 E252A (human) (UniProt P20138); experiment: alanine scan, flow cytometry
[43] = biological target: human CD33 F243A (human) (UniProt P20138); experiment: alanine scan, flow cytometry
Chain of human CD33 F243A (human) (P20138 18-364 F243A limits assumed): as the sequence (P20138 18-364 I47Y limits assumed) above, with Y30I, F226A counted along it

[44] = biological target: human CD33 P238A (human) (UniProt P20138); experiment: alanine scan, flow cytometry
[45] = biological target: human CD33 C212A (human) (UniProt P20138); experiment: alanine scan, flow cytometry
[46] = biological target: human CD33 V221A (human) (UniProt P20138); experiment: alanine scan, flow cytometry
[47] = biological target: human CD33 K215A (human) (UniProt P20138); experiment: alanine scan, flow cytometry
Chain of human CD33 K215A (human) (P20138 18-364 K215A limits assumed): as the sequence (P20138 18-364 I47Y limits assumed) above, with Y30I, K198A counted along it

[48] = biological target: human CD33 D246A (human) (UniProt P20138); experiment: alanine scan, flow cytometry
[49] = biological target: human CD33 V258A (human) (UniProt P20138); experiment: alanine scan, flow cytometry

Chain of human CD33 Y49H (human) (P20138 18-364 Y49H limits assumed): as the sequence (P20138 18-364 I47Y limits assumed) above, with Y30I, Y32H counted along it

## Refmab #7 (WM53) (antibody)
[1]
  Signal:Background (signal:background ratio): 32
[2]
  Mean % WT Binding: 31.7 % WT binding
[3]
  Mean % WT Binding: 27.8 % WT binding
[4]
  Mean % WT Binding: 1.6 % WT binding
[5]
  Mean % WT Binding: 0.3 % WT binding
[6]
  Mean % WT Binding: 1.6 % WT binding
[7]
  Mean % WT Binding: 96.4 % WT binding
[8]
  Mean % WT Binding: 79.6 % WT binding
[9]
  Mean % WT Binding: 8.2 % WT binding
[10]
  Mean % WT Binding: 0.1 % WT binding
[11]
  Mean % WT Binding: 0.7 % WT binding
[12]
  Mean % WT Binding: 15.1 % WT binding
[13]
  Mean % WT Binding: 3.2 % WT binding
[14]
  Mean % WT Binding: 15.9 % WT binding
[15]
  Mean % WT Binding: 1.2 % WT binding
[16]
  Mean % WT Binding: 13.3 % WT binding
[17]
  Mean % WT Binding: 77 % WT binding
[18]
  Mean % WT Binding: 3.9 % WT binding
[19]
  Mean % WT Binding: 1.7 % WT binding
[20]
  Mean % WT Binding: 9.5 % WT binding
[21]
  Mean % WT Binding: 4.3 % WT binding
[22]
  Mean % WT Binding: 1.3 % WT binding
[23]
  Mean % WT Binding: 0.1 % WT binding
[24]
  Mean % WT Binding: 0.9 % WT binding
[25]
  Mean % WT Binding: 20.5 % WT binding
[26]
  Mean % WT Binding: 18.3 % WT binding
[27]
  Mean % WT Binding: 85.2 % WT binding
[28]
  Mean % WT Binding: 120 % WT binding
[29]
  Mean % WT Binding: 108 % WT binding
[30]
  Mean % WT Binding: 99 % WT binding
[31]
  Mean % WT Binding: 115 % WT binding
[32]
  Mean % WT Binding: 82.8 % WT binding
[33]
  Mean % WT Binding: 110 % WT binding
[34]
  Mean % WT Binding: 110 % WT binding
[35]
  Mean % WT Binding: 105 % WT binding
[36]
  Mean % WT Binding: 121 % WT binding
[37]
  Mean % WT Binding: 112 % WT binding
[38]
  Mean % WT Binding: 110 % WT binding
[39]
  Mean % WT Binding: 110 % WT binding
[40]
  Mean % WT Binding: 115 % WT binding
[41]
  Mean % WT Binding: 114 % WT binding
[42]
  Mean % WT Binding: 120 % WT binding
[43]
  Mean % WT Binding: 91.8 % WT binding
[44]
  Mean % WT Binding: 129 % WT binding
[45]
  Mean % WT Binding: 17.8 % WT binding
[46]
  Mean % WT Binding: 99.7 % WT binding
[47]
  Mean % WT Binding: 145 % WT binding
[48]
  Mean % WT Binding: 99.5 % WT binding
[49]
  Mean % WT Binding: 98.8 % WT binding
